In EP1601683B1:

Molecular target: monoclonal anti-H2a antibody of hybridoma clone B9 (ECACC provisional accession number 04030801)
Assay: competitive ELISA, B9 ascitic fluid preincubated overnight with free specific peptide, then added to the peptide-coated plate

% inhibition of the reaction: 81%
Binder: CEKRRNATGEVA [H2 carboxyterminal peptide (SEQ ID NO. 1, …)]
